B1: Numb-related protein 1 (Caenorhabditis elegans), Q9XTY6-1 (parent)
chain: MSASQGNVFTRGLSRISRRKKKTKSIQNSLVSEQQPSFDAAIVPMPIPNDKSSIFSKGMDRLRRSLRLPKKRRDRSHDRHLSPDVTGGSKTEQWQPDEGAVRTGTCCFNVKYLGSVEVYESRGMQVCEGALKSLKASRRKPVKAVLYVSGDGLRVVDQGNSRGLLVDQTIEKVSFCAPDRQTDKGFAYICRDGASRRWMCHGFLATKETGERLSHAVGCAFSICLEKKKRRDEETAQVNVQSAQESTSSTPPKDIFHPNWEDNTSEGTSTQNPSNSRSNLAYQSFRKHVSIEDRYLDPQSVIINEVPASNHMDEIRRISKPRPTGNPALFLRQGSLRAPPDMPSSSDQFKRNMSLRTVSNNPTERSPEKKSFGTQLYNEPIYEGDEDPLGLGITPPVVTKTSGSLSNNGLDGINLNWKSIPAPVHQMQQHNANGDFVAAWPQNTIEKPTVGPLDKLQKQFEDIKLISISSGENTPTTRSKADEWLDDVLRVSMSMSPTSPSSDPPSTSSYSVLPKSGPPPAHAPPPLPVRQAVSNGSPSIYQQQLQQANSTRNSPAGINWNSSPNPMKISQPPAKPVDPFDVQWSRLAVNNTH
partner: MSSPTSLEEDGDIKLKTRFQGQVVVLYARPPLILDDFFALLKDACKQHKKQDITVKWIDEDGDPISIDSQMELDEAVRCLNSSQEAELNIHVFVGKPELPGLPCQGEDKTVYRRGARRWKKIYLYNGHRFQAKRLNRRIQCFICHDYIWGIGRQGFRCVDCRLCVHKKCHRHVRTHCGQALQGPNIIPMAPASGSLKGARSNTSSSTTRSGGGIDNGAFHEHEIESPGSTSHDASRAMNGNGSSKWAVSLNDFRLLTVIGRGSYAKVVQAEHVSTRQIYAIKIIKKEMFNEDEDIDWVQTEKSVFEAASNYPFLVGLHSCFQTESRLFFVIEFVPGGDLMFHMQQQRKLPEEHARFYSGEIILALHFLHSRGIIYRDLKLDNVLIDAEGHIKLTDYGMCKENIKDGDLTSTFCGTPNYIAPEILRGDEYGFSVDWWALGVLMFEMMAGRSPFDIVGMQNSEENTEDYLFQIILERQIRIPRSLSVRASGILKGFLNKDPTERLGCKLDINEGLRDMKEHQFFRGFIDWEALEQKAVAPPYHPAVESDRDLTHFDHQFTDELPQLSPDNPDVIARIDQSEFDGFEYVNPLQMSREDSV

Variants of: B1
Details: with kpc3_caeel pkc-3, Q19266

| effect of a mutation on the interaction | Variant |
| --- | --- |
| decreasing interaction | F175L |
| decreasing interaction | F221L |

Variants of: B1
Details: with kpc3_caeel pkc-3, Q19266
Remark: another data set of the same source

| effect of a mutation on the interaction | Variant |
| --- | --- |
| decreasing interaction | F221L |

Reference: IntAct's records for PubMed 11134024
